Reference: PMC7913688, “Human Rev1 relies on insert-2 to promote selective binding and accurate replication of stabilized G-quadruplex motifs”

T1: hRev1 330-833 polymerase core (human, UniProt Q9UBZ9 330-833)
T1 sequence: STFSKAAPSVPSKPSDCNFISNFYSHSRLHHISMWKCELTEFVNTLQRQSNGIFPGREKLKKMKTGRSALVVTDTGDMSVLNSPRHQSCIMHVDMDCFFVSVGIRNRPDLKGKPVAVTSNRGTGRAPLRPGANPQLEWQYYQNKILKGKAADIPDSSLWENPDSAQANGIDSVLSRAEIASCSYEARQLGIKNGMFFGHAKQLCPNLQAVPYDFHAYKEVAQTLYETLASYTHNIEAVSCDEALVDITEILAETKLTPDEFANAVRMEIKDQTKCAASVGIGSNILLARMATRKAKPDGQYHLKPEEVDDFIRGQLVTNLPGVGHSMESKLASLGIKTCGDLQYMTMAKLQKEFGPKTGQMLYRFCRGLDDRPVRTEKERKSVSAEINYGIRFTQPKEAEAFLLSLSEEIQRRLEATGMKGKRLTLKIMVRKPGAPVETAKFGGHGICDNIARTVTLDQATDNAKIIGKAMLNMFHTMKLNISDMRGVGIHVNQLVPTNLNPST

T2: hRev1 full-length (human, UniProt Q9UBZ9 1-1251)
T2 sequence: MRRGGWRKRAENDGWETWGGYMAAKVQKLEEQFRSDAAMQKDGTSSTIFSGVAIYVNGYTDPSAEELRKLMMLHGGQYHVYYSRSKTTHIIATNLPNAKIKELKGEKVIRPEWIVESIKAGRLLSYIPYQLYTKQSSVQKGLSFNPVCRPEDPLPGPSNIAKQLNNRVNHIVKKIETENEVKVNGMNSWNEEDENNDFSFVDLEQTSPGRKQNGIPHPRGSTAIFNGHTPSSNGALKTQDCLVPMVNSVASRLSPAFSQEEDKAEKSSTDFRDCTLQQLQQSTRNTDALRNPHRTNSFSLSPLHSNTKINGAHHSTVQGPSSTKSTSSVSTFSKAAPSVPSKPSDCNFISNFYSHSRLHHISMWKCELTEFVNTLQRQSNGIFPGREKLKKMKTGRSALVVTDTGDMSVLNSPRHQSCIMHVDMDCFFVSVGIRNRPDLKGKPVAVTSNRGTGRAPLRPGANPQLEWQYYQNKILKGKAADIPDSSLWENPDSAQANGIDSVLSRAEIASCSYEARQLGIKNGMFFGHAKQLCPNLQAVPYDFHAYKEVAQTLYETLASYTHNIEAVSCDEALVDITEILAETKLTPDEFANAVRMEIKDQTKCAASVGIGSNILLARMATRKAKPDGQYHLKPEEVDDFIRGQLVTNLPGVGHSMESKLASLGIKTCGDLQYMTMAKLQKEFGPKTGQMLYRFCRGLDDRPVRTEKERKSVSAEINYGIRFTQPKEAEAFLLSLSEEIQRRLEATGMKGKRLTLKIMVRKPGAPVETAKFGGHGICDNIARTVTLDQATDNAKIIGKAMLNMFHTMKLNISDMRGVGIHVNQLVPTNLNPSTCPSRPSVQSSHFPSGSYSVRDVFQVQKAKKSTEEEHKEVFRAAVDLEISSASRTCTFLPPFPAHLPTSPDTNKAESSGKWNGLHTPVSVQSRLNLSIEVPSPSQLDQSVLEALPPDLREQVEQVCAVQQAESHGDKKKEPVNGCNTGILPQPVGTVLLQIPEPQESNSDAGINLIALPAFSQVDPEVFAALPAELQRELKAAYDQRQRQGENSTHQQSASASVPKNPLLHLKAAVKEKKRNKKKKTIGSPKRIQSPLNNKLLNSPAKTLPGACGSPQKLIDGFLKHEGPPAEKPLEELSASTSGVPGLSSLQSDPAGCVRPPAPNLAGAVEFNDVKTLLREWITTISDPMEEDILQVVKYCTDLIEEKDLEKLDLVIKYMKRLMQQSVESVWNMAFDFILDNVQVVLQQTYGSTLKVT


Key:
[1] = biological target: T1, hRev1 330-833 polymerase core; assay: fluorescence polarization; 100 mM KCl; Fluorescence polarization: 1 nM FAM-DNA, 100 mM KCl or LiCl; DNA annealed in 50 mM HEPES pH 7.5; full buffer as in cited ref 17, temperature not stated. Footprinting: 50 mM HEPES pH 7.5, 100 mM KCl, 10 uM protein, 30 uM ssDNA, room temperature; settings: protein: recombinant, label: 5'-FAM
[2] = biological target: T2, hRev1 full-length; assay: as above; settings: protein: recombinant, label: 5'-FAM
[3] = biological target: T1, hRev1 330-833 polymerase core; assay: fluorescence polarization; 100 mM LiCl; Fluorescence polarization: 1 nM FAM-DNA, 100 mM KCl or LiCl; DNA annealed in 50 mM HEPES pH 7.5; full buffer as in cited ref 17, temperature not stated. Footprinting: 50 mM HEPES pH 7.5, 100 mM KCl, 10 uM protein, 30 uM ssDNA, room temperature; settings: protein: recombinant; label: 5'-FAM
[4] = parallel G4 (1:2:1 loops) in K+

Binder | Kd [1, 4] [nM] | Kd [2, 4] [nM] | Kd [1] [nM] | Kd [2] [nM] | Kd [3] [nM]
AGGGTGGGTAGGGTGGGTTATGAGATGAT (structured_DNA) [Myc 14/23 ss G4] | 37 ± 7 | 5 ± 1 |  |  | 
AGCGTGCGTAGCGTGCGTTATGAGATGAT (ssDNA) [Non-G4 Myc control ss] |  |  | 910 ± 120 | 110 ± 20 | 760 ± 290
